{
  "source": "paper PMC9285637",
  "about": "(Molecular cancer research : MCR, 2019)",
  "binders": {"B1": {"name": "GFP-USP22 (enzyme, human, UniProt Q9UPT9 1-525, looked up)", "chain": "MVSRPEPEGEAMDAELAVAPPGCSHLGSFKVDNWKQNLRAIYQCFVWSGTAEARKRKAKSCICHVCGVHLNRLHSCLYCVFFGCFTKKHIHEHAKAKRHNLAIDLMYGGIYCFLCQDYIYDKDMEIIAKEEQRKAWKMQGVGEKFSTWEPTKRELELLKHNPKRRKITSNCTIGLRGLINLGNTCFMNCIVQALTHTPLLRDFFLSDRHRCEMQSPSSCLVCEMSSLFQEFYSGHRSPHIPYKLLHLVWTHARHLAGYEQQDAHEFLIAALDVLHRHCKGDDNGKKANNPNHCNCIIDQIFTGGLQSDVTCQVCHGVSTTIDPFWDISLDLPGSSTPFWPLSPGSEGNVVNGESHVSGTTTLTDCLRRFTRPEHLGSSAKIKCSGCHSYQESTKQLTMKKLPIVACFHLKRFEHSAKLRRKITTYVSFPLELDMTPFMASSKESRMNGQYQQPTDSLNNDNKYSLFAVVNHQGTLESGHYTSFIRQHKDQWFKCDDAIITKASIKDVLDSEGYLLFYHKQFLEYE"}, "B2": {"name": "GFP-USP22^DUB (domain or fragment, human, UniProt Q9UPT9 164-525, looked up)", "chain": "RRKITSNCTIGLRGLINLGNTCFMNCIVQALTHTPLLRDFFLSDRHRCEMQSPSSCLVCEMSSLFQEFYSGHRSPHIPYKLLHLVWTHARHLAGYEQQDAHEFLIAALDVLHRHCKGDDNGKKANNPNHCNCIIDQIFTGGLQSDVTCQVCHGVSTTIDPFWDISLDLPGSSTPFWPLSPGSEGNVVNGESHVSGTTTLTDCLRRFTRPEHLGSSAKIKCSGCHSYQESTKQLTMKKLPIVACFHLKRFEHSAKLRRKITTYVSFPLELDMTPFMASSKESRMNGQYQQPTDSLNNDNKYSLFAVVNHQGTLESGHYTSFIRQHKDQWFKCDDAIITKASIKDVLDSEGYLLFYHKQFLEYE"}},
  "key": {"mCherry-LacI-PALB2^WD40": {"biological_target": "T1, mCherry-LacI-PALB2^WD40 (UniProt Q86YC2 841-1186)", "T1 sequence (looked up)": "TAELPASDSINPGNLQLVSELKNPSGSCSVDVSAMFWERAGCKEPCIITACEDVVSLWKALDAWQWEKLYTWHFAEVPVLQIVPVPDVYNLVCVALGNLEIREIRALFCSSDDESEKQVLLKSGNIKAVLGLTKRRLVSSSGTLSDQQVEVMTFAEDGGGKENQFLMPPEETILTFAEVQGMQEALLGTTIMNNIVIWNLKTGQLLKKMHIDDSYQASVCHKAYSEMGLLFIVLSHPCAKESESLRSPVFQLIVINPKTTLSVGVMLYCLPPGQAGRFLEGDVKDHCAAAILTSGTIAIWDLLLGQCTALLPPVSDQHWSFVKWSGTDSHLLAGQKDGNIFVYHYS", "test": "LacO/LacI tethering recruitment assay"}, "mCherry-LacI-PALB2^FL": {"biological_target": "T2, mCherry-LacI-PALB2^FL (UniProt Q86YC2 1-1186)", "T2 sequence (looked up)": "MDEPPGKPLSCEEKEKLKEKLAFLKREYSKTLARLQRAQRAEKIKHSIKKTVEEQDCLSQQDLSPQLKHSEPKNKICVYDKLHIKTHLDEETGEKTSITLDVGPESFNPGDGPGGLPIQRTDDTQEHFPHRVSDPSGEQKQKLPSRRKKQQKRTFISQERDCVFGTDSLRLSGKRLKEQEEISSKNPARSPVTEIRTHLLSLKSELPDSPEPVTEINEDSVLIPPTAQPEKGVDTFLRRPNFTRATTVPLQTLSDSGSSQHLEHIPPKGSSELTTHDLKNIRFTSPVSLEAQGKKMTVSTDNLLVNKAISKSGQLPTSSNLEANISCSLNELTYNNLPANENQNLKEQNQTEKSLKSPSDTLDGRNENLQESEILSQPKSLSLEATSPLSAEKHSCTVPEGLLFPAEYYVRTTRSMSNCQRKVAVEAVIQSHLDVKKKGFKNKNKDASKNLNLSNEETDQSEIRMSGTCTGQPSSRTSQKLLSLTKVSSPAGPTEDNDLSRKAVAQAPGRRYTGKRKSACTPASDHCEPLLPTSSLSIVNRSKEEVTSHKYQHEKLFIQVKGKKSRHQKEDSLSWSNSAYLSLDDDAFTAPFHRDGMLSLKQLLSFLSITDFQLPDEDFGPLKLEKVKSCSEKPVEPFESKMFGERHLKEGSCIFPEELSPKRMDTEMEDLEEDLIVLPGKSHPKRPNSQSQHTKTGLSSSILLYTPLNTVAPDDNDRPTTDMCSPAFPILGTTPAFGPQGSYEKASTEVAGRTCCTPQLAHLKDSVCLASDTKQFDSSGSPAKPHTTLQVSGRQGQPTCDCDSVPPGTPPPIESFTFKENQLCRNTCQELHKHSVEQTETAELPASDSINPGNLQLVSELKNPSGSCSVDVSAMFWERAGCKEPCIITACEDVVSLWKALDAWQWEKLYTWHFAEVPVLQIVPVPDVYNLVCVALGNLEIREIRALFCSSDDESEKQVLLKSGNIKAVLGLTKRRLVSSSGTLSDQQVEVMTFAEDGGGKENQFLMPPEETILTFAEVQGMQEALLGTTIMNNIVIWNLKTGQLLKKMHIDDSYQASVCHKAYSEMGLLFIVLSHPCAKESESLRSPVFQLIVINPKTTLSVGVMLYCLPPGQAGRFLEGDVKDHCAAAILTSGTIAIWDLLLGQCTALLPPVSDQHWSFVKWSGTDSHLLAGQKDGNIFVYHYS", "test": "LacO/LacI tethering recruitment assay"}},
  "data": [
    {"binder": "B1", "values": [
      {"measurement": "percent of cells with recruitment of GFP-USP22 to the LacO array", "setting": "mCherry-LacI-PALB2^WD40", "result": 37.5, "unit": "%"},
      {"measurement": "percent of cells with recruitment of GFP-USP22 to the LacO array", "setting": "mCherry-LacI-PALB2^FL", "result": 35, "unit": "%"}
    ]},
    {"binder": "B2", "values": [
      {"measurement": "percent of cells with recruitment of GFP-USP22 to the LacO array", "setting": "mCherry-LacI-PALB2^WD40", "result": 55, "unit": "%"}
    ]}
  ]
}
